The record followed here is article PMC9007350, “Aurintricarboxylic acid is a canonical disruptor of the TAZ-TEAD transcriptional complex” (PLoS ONE, 2022).

Ends that are not written are not given here.

Assay in all cases: fluorescence polarisation; TEAD4 (217-434) at 350 nM, carboxyfluorescein peptide probe at 25 nM; disruptors titrated 0-150 uM to the probe-TEAD complex; 25 C, 20 min
Settings in all cases: both partners purified
For orientation: Fluorescence polarisation rises when a labelled molecule tumbles more slowly, as on binding a larger partner.

For experiment [1], the target named is T1, YAP/TAZ-binding domain of human TEAD4 (217-434), acylated form (human, UniProt Q15561 217-434, acylated).
T1 construct: also called acylated TEAD
T1 sequence (Q15561 217-434): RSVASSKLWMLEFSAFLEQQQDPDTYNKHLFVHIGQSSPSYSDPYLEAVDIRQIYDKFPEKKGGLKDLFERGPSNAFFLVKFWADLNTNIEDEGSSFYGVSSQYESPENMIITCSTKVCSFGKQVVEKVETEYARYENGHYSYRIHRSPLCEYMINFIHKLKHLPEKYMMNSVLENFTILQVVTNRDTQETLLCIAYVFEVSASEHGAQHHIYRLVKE

Experiment [2] addresses T2, YAP/TAZ-binding domain of human TEAD4 (217-434), deacylated form (human, UniProt Q15561 217-434).
T2 construct: also called deacylated TEAD

In experiment [3] the target is YAP/TAZ-binding domain of human TEAD4 (217-434), acylation state not stated (human, UniProt Q15561 217-434).
Sequence of YAP/TAZ-binding domain of human TEAD4 (217-434), acylation state not stated (Q15561 217-434): as above

T2 sequence (Q15561 217-434): as above

B1: Human TAZ (23-57) peptide probe, carboxyfluorescein-labelled (peptide, UniProt Q9GZV5 23-57, looked up)
peptide: DLDTDLEALFNSVMNPKPSSWRKKILPESFFKEPD
modifications: carboxyfluorescein label (position not given)
notes: human TAZ residues 23-57, UniProt Q9GZV5; also called TAZ peptide probe; TAZ probe
On to B1, for which the binding result in experiment [1] and in experiment [2] was “binds” in each case.

B2: Human YAP (61-100) peptide probe, carboxyfluorescein-labelled (peptide, UniProt P46937 61-100, looked up)
peptide: SETDLEALFNAVMNPKTANVPQTVPMRLRKLPDSFFKPPE
modifications: carboxyfluorescein label (position not given)
notes: human YAP (Yes-associated protein) residues 61-100; also called YAP peptide probe
For the molecule B2, in experiment [3], the binding result is on record as “binds”.

B3: Mouse Vgll1 (26-51) peptide probe, carboxyfluorescein-labelled (peptide, UniProt Q99NC0 26-51, looked up)
peptide: GSVIFTYFEGDINSMVDEHFSRALRN
modifications: also: carboxyfluorescein label, position not given here
notes: mouse Vgll1 residues 26-51; also called Vgll1 peptide probe
On to B3, for which the binding result in experiment [3] is recorded as “binds”.
